Test results: the nanobody polyreactivity screen of Harvey et al. (2022)

Test: yeast display, Sf9 membrane polyspecificity reagent, FACS + sequencing; frameworks hold sequencing errors
Procedure, shortened: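 Nanobodies came from a synthetic yeast display library in Saccharomyces cerevisiae BJ5465, induced with galactose for 36–48 hours and stained for 1 hour at 4 °C with 10% biotinylated, detergent-solubilized Sf9 membrane reagent. Cells were enriched on streptavidin microbeads and then FACS-sorted, with low and high (top ~1%) gates set on anti-HA fluorescence for expression and streptavidin fluorescence for reagent binding. Each polyreactivity label reflects the gate a clone came from. Genes were amplified by colony PCR, sequenced by MiSeq 2 × 250 and filtered by CDR length.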

| Sequence | polyreactivity (PSR sort gate) |
| --- | --- |
| QVQLVESGGGLVQAGGSLRLSCAASGNIFLYYAMRWYRQAPGKERELVADIDSSGASTYYADSVKVRFTISRDNAKNTVYLQMNSLKPEDTAVYYCAAEFHWWYAGYDYGYWGQGTKVTVSS | low polyreactivity |
| QVQLVESGGGLVQAGGSLRLSCAASGNIFNYNAMGWYRQATGNERELVAAISFSGGSTYYADSVKARFTISRDNAQNTVYLQMNSLKPEDTAVYYCAKAERNYFEYWGQGTQVTVSS | high polyreactivity |
| QVQLVESGGGLVQAGGSLRLSCAASGNIFPSYAMGWYRQAPGKERELVASINFSDGYTSYADSVKGRFTISRDNAKNTVYLQMNSLKPEDTAVYNCNADVWYYYYGFKGEEDYWGQGTQVTVSS | low polyreactivity |
| QVQLVESGGGLVQAGGSLRLSCAASGNIFRGYTMGWSRQAPGKEREWVATISWNGVSTFYADSVKGRFTISRDNAKNTVYVQMNSLKPEDTAVYYCAAYYPSHDYSGFWSDTYEYWGQGTQVTVSS | low polyreactivity |
| QVQLVESGGGLVQAGGSLRLSCAASGNIFRKYAMGWYRQAPGKERELVATISYSGGSTYYADSVKGRFTISRDNAKNTVYLQMNSLKPEDTAVYYCNAVKDLDSSFDYWGQGTQVTVSS | low polyreactivity |
| QVQLVESGGGLVQAGGSLRLSCAASGNIFRRYTLGWSRQAPGKERELVAAISSGGSTNYADSVKGRFTLSRDNAKNTVYLQMNSLKPEDTAVYYCAATRRYIQYGYDYWGQGTQVTVSS | high polyreactivity |
| QVQLVESGGGLVQAGGSLRLSCAASGNIFRSYMGWYRQAPGKEREFVAGITWRGGNTYYADSVKGRFTISRDNAKNTVYLQMNSLKPEDTAVYYCAAEIFVYYRWYDYWGQGTQVTVSS | high polyreactivity |
| QVQLVESGGGLVQAGGSLRLSCAASGNIFRVYDMGWYRQAPGKERELVATITSGGRTYYADSVKGRFTISRDNAKNTVYLQMNSLKPEDTAVYYCNVDVKGRPTFWSPFGRFDYWGQGTQVTVSS | high polyreactivity |
| QVQLVESGGGLVQAGGSLRLSCAASGNIFRYNAMGWYRQAPGKERELVAAISRGGSTKYADSVKGRFTISRDNAKNTVYLQMNSLKPEDTAVFYCARVKSTGSTFASPYDYWGQGTQVTVSS | high polyreactivity |
| QVQLVESGGGLVQAGGSLRLSCAASGNIFRYNARGWYRKAPGKERELVAAISSVGTTNSADSVKGRFTSSRDNAKNTFYLQMNSLKPEDTAVYYCNAAWSSYLSGGYESWGQGTQVTVSS | low polyreactivity |
| QVQLVESGGGLVQAGGSLRLSCAASGNIFSKYVRGWYRQARGKERELVAAITYSGGSTYYADSVKGRFTISRDNSKNTVYLQMNSLKPEDTGVYYCNAVRRRSSLKLDSWGQGTQVTVSS | high polyreactivity |
| QVQLVESGGGLVQAGGSLRLSCAASGNIFSRNAMGWYRQAPGKERELVASIRWSGGSTYADSVKGRFTISRDNAKNTVYLQMNSLKPEDTAVYYCAADSLHGRKFRGVDYWGQGTEVTVSS | low polyreactivity |
| QVQLVESGGGLVQAGGSLRLSCAASGNIFSRYAMGWYRQAPGKERELVAAISSSGGTTYYADSVKGRFTISRDNAKNTVYLHMNSLKPEDTAVYYCNARRRQIYSEFGYWGQGTQVTVSS | high polyreactivity |
| QVQLVESGGGLVQAGGSLRLSCAASGNIFSVYAMGWYRKAPGKERELVAAISSSGGRTYYADSVKGRFTISRDNEKNTVYLHMNSLKPEDTAVYYCAARSYTGQFVYWGQGTQVTVSS | high polyreactivity |
| QVQLVESGGGLVQAGGSLRLSCAASGNIFSWYAMGWYRQAPGKERELVAAITSGGRTYYADSVKGRFTISRDNAKNTVYLQMNSLKPEDTAVYYCNALRRRQYHDDYWGQGTQVTVSS | high polyreactivity |
| QVQLVESGGGLVQAGGSLRLSCAASGNIFSYYAMGWYRQAPGKERELVAAIRSSGVGTRYADSVKGRFTISRDNAKNTVYLQINSLKPEDTAVYYCAATGYTGYSRYYYWGQGTQVTVSS | high polyreactivity |
| QVQLVESGGGLVQAGGSLRLSCAASGNIFSYYAMGWYRQAPGKETELVAAIRSSGVGTRYADSVKGRFTISRDNAKNTVYVQMNSLKPEDTAVYYCAATGYTGYSRYYYWGQGTQVTVSS | high polyreactivity |
